From PMC5295774, “Stabilization of Nucleosomes by Histone Tails and by FACT Revealed by spFRET Microscopy” (Cancers, 2017)

Target: T1, His-MBP-tagged SSRP1 (1–709) (human, UniProt Q08945 1-709)
T1 construct: SSRP1 subunit of human FACT, residues 1-709; The tag was still on SSRP1 when the complex with Spt16 was purified on Nickel-NTA; it was cut afterwards; also called structure-specific recognition protein 1; source: E. coli BL21(DE3), purified (Nickel-NTA)
Test: pull-down; purified Spt16 and His-MBP-tagged SSRP1 mixed at a 1:1 molar ratio, complex purified on Nickel-NTA by the tag of SSRP1; after TEV cleavage again Nickel-NTA and Superdex 200 SEC; 50 mM NaH2PO4-Na2HPO4, 300 mM NaCl, pH 7.5
Settings: both partners purified

T1 sequence (Q08945 whole entry, the tested form may be a part): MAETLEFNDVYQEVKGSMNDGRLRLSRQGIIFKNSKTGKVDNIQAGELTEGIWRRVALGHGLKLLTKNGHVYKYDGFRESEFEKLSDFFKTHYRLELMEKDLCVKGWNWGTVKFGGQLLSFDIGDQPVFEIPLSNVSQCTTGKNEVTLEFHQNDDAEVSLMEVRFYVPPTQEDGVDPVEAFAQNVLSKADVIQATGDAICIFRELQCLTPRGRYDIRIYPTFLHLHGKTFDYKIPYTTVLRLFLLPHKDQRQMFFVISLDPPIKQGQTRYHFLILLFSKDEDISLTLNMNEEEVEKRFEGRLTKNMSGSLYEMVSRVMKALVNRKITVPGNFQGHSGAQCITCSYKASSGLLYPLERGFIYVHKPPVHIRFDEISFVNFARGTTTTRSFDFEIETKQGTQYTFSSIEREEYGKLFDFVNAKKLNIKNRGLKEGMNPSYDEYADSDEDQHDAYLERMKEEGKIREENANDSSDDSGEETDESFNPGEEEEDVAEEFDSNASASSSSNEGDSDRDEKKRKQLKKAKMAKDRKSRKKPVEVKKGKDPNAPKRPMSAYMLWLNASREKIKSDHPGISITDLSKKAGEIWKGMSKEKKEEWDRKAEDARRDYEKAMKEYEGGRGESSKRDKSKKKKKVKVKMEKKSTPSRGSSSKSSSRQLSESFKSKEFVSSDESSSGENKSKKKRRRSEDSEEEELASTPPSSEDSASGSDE

B1: Spt16 (501–1006) (domain or fragment, human, UniProt Q9Y5B9 501-1006, looked up)
chain: QIQKARKSNVSYKNPSLMPKEPHIREMKIYIDKKYETVIMPVFGIATPFHIATIKNISMSVEGDYTYLRINFYCPGSALGRNEGNIFPNPEATFVKEITYRASNIKAPGEQTVPALNLQNAFRIIKEVQKRYKTREAEEKEKEGIVKQDSLVINLNRSNPKLKDLYIRPNIAQKRMQGSLEAHVNGFRFTSVRGDKVDILYNNIKHALFQPCDGEMIIVLHFHLKNAIMFGKKRHTDVQFYTEVGEITTDLGKHQHMHDRDDLYAEQMEREMRHKLKTAFKNFIEKVEALTKEELEFEVPFRDLGFNGAPYRSTCLLQPTSSALVNATEWPPFVVTLDEVELIHFERVQFHLKNFDMVIVYKDYSKKVTMINAIPVASLDPIKEWLNSCDLKYTEGVQSLNWTKIMKTIVDDPEGFFEQGGWSFLEPEGEGSDAEEGDSESEIEDETFNPSEDDYEEEEEDSDEDYSSEAEESDYSKESLGSEEESGKDWDELEEEARKADRESRY
notes: Spt16 subunit of human FACT, residues 501-1006 (without the N-terminal domain); His-MBP tag cut with TEV protease and removed by SEC before mixing with SSRP1; also called suppressor of Ty 16; Spt16 without the NTD; source: E. coli BL21(DE3), purified (Nickel-NTA, TEV cleavage, Superdex 200 SEC)
Question: Does B1 bind?
Answer: binds
